This is an account of results in patent US9518268B2, “Drought tolerant transgenic plants and method of making same” (PURDUE RESEARCH FOUNDATION, priority 2013, dated 2016).

For test [1], the system named is RD29B-LUC expression. In words: Reconstituted ABA signaling pathway, transient expression in wild-type (Col-0) protoplasts. Format: cell-based, Arabidopsis. Particulars: for ABA-dependent induction of RD29B-LUC expression: co-transfected with ABI1, SnRK2.6 and ABF2, without or with 5 μM ABA, 4.5 h. How it is done: To test whether PYL13 can act as an ABA receptor, the ABA signaling pathway in wild-type protoplasts was reconstituted. Turning now to FIG. 1, wild-type (Col-0) protoplasts were used in both panels A and B. After transfection, the protoplasts were incubated for 4.5 hours under light in the absence of ABA (open bars) or in the presence of 5 μM ABA (closed bars). Error bars indicate s.e.m. (n=3). […] ZmUBQ-GUS was used as the internal control. […] Instead, the ABA signaling pathway was reconstituted by co-expression of PYLs, ABI1, SnRK2.6, and ABF2. […] Therefore, the response of other members of the PYL family would not predict the response of PYL13 expression or over-expression in plants.
PYL13 interacts with all clade A PP2Cs tested but binds most strongly to PP2CA. To investigate whether PYL13 inhibits PP2Cs in planta, PYL13 was co-expressed with all clade A PP2Cs in wild-type protoplasts, as shown in FIG. 4. Transfections of all PP2Cs together with SnRK2.6 and ABF2 inhibited RD29B-LUC expression to different degrees, see FIG. 4A, and the degree of inhibition was correlated with the intensity of interaction between PP2Cs and SnRK2.6 (Fujii et al., 2009). […] The ABA signaling pathway was reconstituted by co-expression of PYLs, PP2Cs, SnRK2.6, and ABF2. RD29B-LUC was used as the ABA-responsive reporter. ZmUBQ-GUS was used as the internal control. After transfection, protoplasts were incubated for 4.5 h under light in the absence of ABA (open bars) or in the presence of 5 μM ABA (closed bars). Error bars indicate s.e.m. (n=9).
To investigate the physiological significance of the binding between PYL13 and PYLs in vivo, PYL13 was co-expressed with one of the other PYLs, ABI1, SnRK2.6, and ABF2 in wild-type protoplasts. When the transfected PYL13 plasmid was 2-fold of that of the other PYLs, co-transfections with PYL13 decreased the activity of the ABA-responsive PYLs (FIG. 5E). […] ZmUBQ-GUS was used as the internal control. After transfection, protoplasts were incubated for 4.5 h under light in the absence of ABA (open bars) or in the presence of 5 μM ABA (closed bars). Error bars indicate s.e.m. (n=3).
The ABA signaling pathway was reconstituted by co-expression of PYL13, PYLs, ABI1, SnRK2.6, and ABF2. […] Error bars indicate s.e.m. (n=3). […] Without wishing to be bound by theory, PYL13 inhibition of other PYLs might result from direct interactions between PYL13 and other PYLs or from competition for the binding sites on PP2Cs.
(§1) Assays for transient expression in protoplasts were performed as described (Fujii et al., 2009). Leaf strips (0.5 mm) were cut from the middle part of second leaves using a razor blade (VWR SCIENTIFIC) and submerged in 15 mL of enzyme solution containing 20 mM MES, pH 5.7, 1.5% (w/v) cellulase R10 (YAKULT PHARMACEUTICAL INDUSTRY), 0.4% (w/v) macerozyme R10 (YAKULT PHARMACEUTICAL INDUSTRY), 0.4 M mannitol, 20 mM KCl, 10 mM CaCl2, 1 mM 2-mercaptoethanol, and 0.1% BSA. The leaves were vacuum infiltrated for 30 min and then incubated without shaking for 3 h in the dark at room temperature. The enzyme/protoplast solution was diluted with 15 mL of W5 solution (2 mM MES, pH 5.7, 154 mM NaCl, 125 mM CaCl2, and 5 mM KCl) and filtered with a 75-μm nylon mesh. Protoplasts were centrifuged at 100 g for 2 min in a 30-mL round-bottomed tube (SARSTEDT), resuspended in W5 solution, and rested for 30 min at room temperature.
Before transfection, protoplasts were changed into MMg solution (4 mM MES, pH 5.7, 0.4 M mannitol, and 15 mM MgCl2) to a final concentration of 2×10^5 cells per microliter. Protoplasts (100 μl) were gently and thoroughly mixed with the plasmid DNA mixture (less than 10 μl) and 110 μl of PEG solution (40% w/v PEG-4000, 0.2 M mannitol, and 100 mM CaCl2), incubated for 5 min, washed with 440 μl of W5 solution, and resuspended in 50 μl of WI solution (4 mM MES, pH 5.7, 0.5 M mannitol, and 20 mM KCl). After transfection, protoplasts were incubated in WI solution without ABA or with 5 μM ABA under light. […]

In test [2] the test system is RD29B-LUC expression. In words: ABA-independent induction of RD29B-LUC in triple mutant protoplasts. Type of test: cell-based, Arabidopsis. Particulars: for ABA-independent RD29B-LUC expression, as share of that in the presence of 5 μM ABA: abi1/hab1/abi2 and abi1hab1pp2ca triple mutant protoplasts, with SnRK2.6 and ABF2.
From the text: The basal RD29B-LUC expression level was elevated in protoplasts co-transfected with PP2CA-PYL13, HAI2-PYL13, or HAI3-PYL13, which is consistent with PYL13 inhibition of these PP2Cs in an ABA-independent manner in vivo (FIG. 4A). To exclude interference by endogenous PP2Cs in wild type protoplasts and to assess the ABA-independent selective inhibition of PP2Cs by PYL13, PYL13 was co-expressed with PP2CA, HAI1, HAI2, and HAI3 in abi1/hab1/abi2 triple mutant protoplasts, as shown in FIG. 4C. After transfection, protoplasts were incubated for 4.5 h under light in the absence of ABA. Error bars indicate s.e.m. (n=3).
Expression of RD29B-LUC in the absence of ABA was increased in the transfections of PYL9-K63Q/L89F or PYL11-K39Q/L66F together with SnRK2.6 and ABF2 to a considerable level. The ABA-independent RD29B-LUC expression is about 70% of that in the presence of 5 μM ABA in the transfection of PYL11-K39Q/L66F, while about 30˜60% in the transfection of PYL9-K63Q/L89F (FIG. 4). […] RD29B-LUC was used as the ABA-responsive reporter. ZmUBQ-GUS was used as the internal control. After transfection, protoplasts were incubated for 4.5 h under light in the absence of ABA (open bars) or in the presence of 5 μM ABA (closed bars). Error bars indicate s.e.m. (n=4).
as §1
Before transfection, protoplasts were changed into MMg solution (4 mM MES, pH 5.7, 0.4 M mannitol, and 15 mM MgCl2) to a final concentration of 2×10^5 cells per microliter. Protoplasts (100 μl) were gently and thoroughly mixed with the plasmid DNA mixture (less than 10 μl) and 110 μl of PEG solution (40% w/v PEG-4000, 0.2 M mannitol, and 100 mM CaCl2), incubated for 5 min, washed with 440 μl of W5 solution, and resuspended in 50 μl of WI solution (4 mM MES, pH 5.7, 0.5 M mannitol, and 20 mM KCl). After transfection, protoplasts were incubated in WI solution without ABA or with 5 μM ABA under light. The protoplasts were harvested after 4.5 h, frozen in liquid N2, and stored at −80° C.
The frozen protoplasts were resuspended in 50 μl of protoplast lysis buffer containing 2.5 mM Tris-phosphate, pH 7.8, 1 mM DTT, 2 mM DACTAA, 10% (v/v) glycerol, and 1% (v/v) Triton X-100. Protoplast lysates (20 μl) were mixed with 100 μl of LUC mix (PROMEGA), and LUC luminescence was measured with a plate reader (Wallac VICTOR2 plate reader).
Protoplast lysates (2 μl) were mixed with 10 μl of 4-methylumbelliferyl β-D-glucuronide (MUG) substrate mix (10 mM Tris-HCl, pH 8, 1 mM MUG [GOLD BIOTECHNOLOGY], and 2 mM MgCl2). After the mixture was kept for 30 min at 37° C., 100 μl of 0.2 M Na2CO3 was added, and GUS activity was measured using the plate reader with the excitation filter at 355 nm and the emission filter at 460 nm.
All the plasmids used in this assay were purified with the QIAGEN Plasmid Maxi Kit or the QIAGEN Plasmid Midi Kit. The quality of plasmid DNA is important for high transfection efficiency. RD29B::LUC (7 μg of plasmid per transfection) was used as the ABA-responsive reporter. ZmUBQ::GUS (2 μg of plasmid per transfection) was used as the internal control. […]

B1: PYR1: Arabidopsis thaliana ABA receptor protein PYR1, AT4G17870 (protein, listed as Arabidopsis thaliana)
chain: MPSELTPEERSELKNSIAEFHTYQLDPGSCSSLHAQRIHAPPELVWSIVRRFDKPQTYKHFIKSCSVEQNFEMRVGCTRDVIVISGLPANTSTERLDILDDERRVTGFSIIGGEHRLTNYKSVTTVHRFEKENRIWTVVLESYVVDMPEGNSEDDTRMFADTVVKLNLQKLATVAEAMARNSGDGSGSQVT
As for B1, the “ABA-dependent induction of RD29B-LUC expression” value (“ABA-dependent induction” below) in the test with RD29B-LUC expression [1] is “restored RD29B-LUC expression”.

B2: PYL9-K63Q/L89F (protein)
chain: MMDGVEGGTAMYGGLETVQYVRTHHQHLCRENQCTSALVKHIKAPLHLVWSLVRRFDQPQKYQPFVSRCTVIGDPEIGSLREVNVKSGFPATTSTERLELLDDEEHILGIKIIGGDHRLKNYSSILTVHPEIIEGRAGTMVIESFVVDVPQGNTKDETCYFVEALIRCNLKSLADVSERLASQDITQ
On to B2, for which the “ABA-dependent induction” value in the test on RD29B-LUC expression [1] is “cannot antagonize”. For the same molecule, the “ABA-independent RD29B-LUC expression, as share of that in the presence of 5 μM ABA” value in the test with RD29B-LUC expression [2] is recorded as 30˜60%.

B3: PYL11-K39Q/L66F (protein)
chain: METSQKYHTCGSTLVQTIDAPLSLVWSILRRFDNPQAYQQFVKTCNLSSGDGGEGSVREVTVVSGFPAEFSRERLDELDDESHVMMISIIGGDHRLVNYRSKTMAFVAADTEEKTVVVESYVVDVPEGNSEEETTSFADTIVGFNLKSLAKLSERVAHLKL
B3: the “ABA-dependent induction” value in the test with RD29B-LUC expression [1] is “cannot antagonize”. For the same molecule, the “ABA-independent RD29B-LUC expression, as share of that in the presence of 5 μM ABA” value with RD29B-LUC expression [2] was “about 70%”.

B4: Q38K/F71L (protein)
chain: MESSKQKRCRSSVVETIEAPLPLVWSILRSFDKPQAYKRFVKSCTMRSGGGGGKGGEGKGSVRDVTLVSGLPADFSTERLEELDDESHVMVVSIIGGNHRLVNYKSKTKVVASPEDMAKKTVVVESYVVDVPEGTSEEDTIFFVDNIIRYNLTSLAKLTKKMMK
B4: in the test on RD29B-LUC expression [1], the “ABA-dependent induction” value is on record as “could partially confer”. Besides, the RD29B-LUC expression entry in the test with RD29B-LUC expression [1] (with ABI1, HAB1, HAB2, HAI1, and AHG1, SnRK2.6 and ABF2) is recorded as “conferred an ABA-dependent induction”.

B5: Q38K/F71L/N98D/T135N (protein)
chain: MESSKQKRCRSSVVETIEAPLPLVWSILRSFDKPQAYKRFVKSCTMRSGGGGGKGGEGKGSVRDVTLVSGLPADFSTERLEELDDESHVMVVSIIGGDHRLVNYKSKTKVVASPEDMAKKTVVVESYVVDVPEGNSEEDTIFFVDNIIRYNLTSLAKLTKKMMK
On to B5, for which the “ABA-dependent induction” value in the test on RD29B-LUC expression [1] is “could partially confer”. Moreover, the “expression of RD29B-LUC in the absence of ABA” value with RD29B-LUC expression [2] (abi1/hab1/abi2 protoplasts, with PP2CA, HAI2, or HAI3, SnRK2.6 and ABF2) is on record as “abolished”.

B6: Q38K/F71L/N98D (protein)
chain: MESSKQKRCRSSVVETIEAPLPLVWSILRSFDKPQAYKRFVKSCTMRSGGGGGKGGEGKGSVRDVTLVSGLPADFSTERLEELDDESHVMVVSIIGGDHRLVNYKSKTKVVASPEDMAKKTVVVESYVVDVPEGTSEEDTIFFVDNIIRYNLTSLAKLTKKMMK
As to B6, the “ABA-dependent induction” value in the test with RD29B-LUC expression [1] is listed as “could partially confer”.

B7: Q38K/F71L/T135N (protein)
chain: MESSKQKRCRSSVVETIEAPLPLVWSILRSFDKPQAYKRFVKSCTMRSGGGGGKGGEGKGSVRDVTLVSGLPADFSTERLEELDDESHVMVVSIIGGNHRLVNYKSKTKVVASPEDMAKKTVVVESYVVDVPEGNSEEDTIFFVDNIIRYNLTSLAKLTKKMMK
For the molecule B7, the “ABA-dependent induction” value in the test with RD29B-LUC expression [1] is on record as “could partially confer”.
